From the supplement of paper PMC11908140

B1: library; numbered along this chain (parent)
chain: MRKPRAAVGSGHRKQAASQEGRQKHAKNNSQAKPSACDGLARQPEEVVLQASVSSYHLFRDVAEVTAFRGSLLSWYDQEKRDLPWRRRAEDEMDLDRRAYAVWVSEVMLQQTQVATVINYYTGWMQKWPTLQDLASASLEEVNQLWAGLGYYSRGRRLQEGARKVVEELGGHMPRTAETLQQLLPGVGRYTAGAIASIAFGQATGVVDGNVARVLCRVRAIGADPSSTLVSQQLWGLAQQLVDPARPGDFNQAAMELGATVCTPQRPLCSQCPVESLCRARQRVEQEQLLASGSLSGSPDVEECAPNTGQCHLCLPPSEPWDQTLGVVNFPRKASRKPPREESSATCVLEQPGALGAQILLVQRPNSGLLAGLWEFPSVTWEPSEQLQRKALLQELQRWAGPLPATHLRHLGEVVHTFSHIKLTYQVYGLALEGQTPVTTVPPGARWLTQEEFHTAAVSTAMKKVFRVYQGQQPGTCMGSKRSQVSSPCSRKKPRMGQQVLDNFFRSHISTDAHSLNSAAQ

Variants of: B1
Assay: 8OG:A repair function score (normalized; synonymous = 0, nonsense = -1) (normalized log-likelihood score); higher = more repair activity (WT-like)
Settings: with 8OG:A DNA repair reporter (GFP) in HEK-293 MUTYH KO cells
Description: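 Saturation mutagenesis (NNN codon scan) of the MUTYH cDNA (521-aa nuclear isoform NM_001048174.1 / NP_001041639), stably expressed under doxycycline induction in HEK-293 MUTYH knockout cells. Cells were co-transfected with an 8OG:A-bearing GFP repair reporter plus mCherry and sorted 72 h later into GFP+ and GFP− bins, three replicates per tile. The Rosace log2 enrichment (GFP+ vs GFP−) was converted per tile to a normalized function score with synonymous variants centered at 0 and nonsense variants (codons 1-471) at -1; low-abundance variants were removed.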

Variant | 8OG:A repair function score
MRKPRAAVGSGHRKQAASQEGRQKHAKNNSQAKPSACDGLARQPEEVVLQASVSSYHLFRDVAEVTAFRGSLLSWYDQEKRDLPWRRRAEDEMDLDRRAYAVWVSEVMLQQTQVATVINYYTGWMQKWPTLQDLASASLEEVNQLWAGLGYYSRGRRLQEGARKVVEELGGHMPRTAETLQQLLPGVGRYTAGAIASIAFGQATGVVDGNVARVLCRVRAIGADPSSTLVSQQLWGLAQQLVDPARPGDFNQAAMEYGATVCTPQRPLCSQCPVESLCRARQRVEQEQLLASGSLSGSPDVEECAPNTGQCHLCLPPSEPWDQTLGVVNFPRKASRKPPREESSATCVLEQPGALGAQILLVQRPNSGLLAGLWEFPSVTWEPSEQLQRKALLQELQRWAGPLPATHLRHLGEVVHTFSHIKLTYQVYGLALEGQTPVTTVPPGARWLTQEEFHTAAVSTAMKKVFRVYQGQQPGTCMGSKRSQVSSPCSRKKPRMGQQVLDNFFRSHISTDAHSLNSAAQ [L257Y] | -0.76
MRKPRAAVGSGHRKQAASQEGRQKHAKNNSQAKPSACDGLARQPEEVVLQASVSSYHLFRDVAEVTAFRGSLLSWYDQEKRDLPWRRRAEDEMDLDRRAYAVWVSEVMLQQTQVATVINYYTGWMQKWPTLQDLASASLEEVNQLWAGLGYYSRGRRLQEGARKVVEELGGHMPRTAETLQQLLPGVGRYTAGAIASIAFGQATGVVDGNVARVLCRVRAIGADPSSTLVSQQLWGLAQQLVDPARPGDFNQAAMELGATVCTPQRPLCSQCPVESLCRARQRVEQEQLLASGSLSGSPDVEECAPNTGQCHLCLPPSEPWDQTLGVVNFPRKASRKPPREESSATCVLEQPGALGAQILPVQRPNSGLLAGLWEFPSVTWEPSEQLQRKALLQELQRWAGPLPATHLRHLGEVVHTFSHIKLTYQVYGLALEGQTPVTTVPPGARWLTQEEFHTAAVSTAMKKVFRVYQGQQPGTCMGSKRSQVSSPCSRKKPRMGQQVLDNFFRSHISTDAHSLNSAAQ [L361P] | -1.01
MRKPRAAVGSGHRKQAASQEGRQKHAKNNSQAKPSACDGLARQPEEVVLQASVSSYHLFRDVAEVTAFRGSLLSWYDQEKRDLPWRRRAEDEMDLDRRAYAVWVSEVMLQQTQVATVINYYTGWMQKWPTLQDLASASLEEVNQLWAGLGYYSRGRRLQEGARKVVEELGGHMPRTAETLQQLLPGVGRYTAGAIASIAFGQATGVVDGNVARVLCRVRAIGADPSSTLVSQQLWGLAQQLVDPARPGDFNQAAMELGATVCTPQRPLCSQCPVESLCRARQRVEQEQLLASGSLSGSPDVEECAPNTGQCHLCLPPSEPWDQTLGVVNFPRKASRKPPREESSAKCVLEQPGALGAQILLVQRPNSGLLAGLWEFPSVTWEPSEQLQRKALLQELQRWAGPLPATHLRHLGEVVHTFSHIKLTYQVYGLALEGQTPVTTVPPGARWLTQEEFHTAAVSTAMKKVFRVYQGQQPGTCMGSKRSQVSSPCSRKKPRMGQQVLDNFFRSHISTDAHSLNSAAQ [T346K] | -0.886
MRKPRAAVGSGHRKQAASQEGRQKHAKNNSQAKPSACDGLARQPEEVVLQASVSSYHLFRDVAEVTAFRGSLLSWYDQEKRDLPWRRRAEDEMDLDRRAYAVWVSEVMLQQTQVATVINYYTGWMQKWPTLQDLASASLEEVNQLWAGLGYYSRGRRLQEGARKVVEELGGHMPRTAETLQQLLPGVGRYTAGAIASIAFGQATGVVDGNVARVLCRVRAIGADPSSTLVSQQLWGLAQQLVDPARPGWFNQAAMELGATVCTPQRPLCSQCPVESLCRARQRVEQEQLLASGSLSGSPDVEECAPNTGQCHLCLPPSEPWDQTLGVVNFPRKASRKPPREESSATCVLEQPGALGAQILLVQRPNSGLLAGLWEFPSVTWEPSEQLQRKALLQELQRWAGPLPATHLRHLGEVVHTFSHIKLTYQVYGLALEGQTPVTTVPPGARWLTQEEFHTAAVSTAMKKVFRVYQGQQPGTCMGSKRSQVSSPCSRKKPRMGQQVLDNFFRSHISTDAHSLNSAAQ [D249W] | -0.851
MRKPRAAVGSGHRKQAASQEGRQKHAKNNSQAKPSACDGLARQPEEVVLQASVSSYHLFRDVAEVTAFRGSLLSWYDQEKRDLPWRRRAEDEMDLDRRAYADWVSEVMLQQTQVATVINYYTGWMQKWPTLQDLASASLEEVNQLWAGLGYYSRGRRLQEGARKVVEELGGHMPRTAETLQQLLPGVGRYTAGAIASIAFGQATGVVDGNVARVLCRVRAIGADPSSTLVSQQLWGLAQQLVDPARPGDFNQAAMELGATVCTPQRPLCSQCPVESLCRARQRVEQEQLLASGSLSGSPDVEECAPNTGQCHLCLPPSEPWDQTLGVVNFPRKASRKPPREESSATCVLEQPGALGAQILLVQRPNSGLLAGLWEFPSVTWEPSEQLQRKALLQELQRWAGPLPATHLRHLGEVVHTFSHIKLTYQVYGLALEGQTPVTTVPPGARWLTQEEFHTAAVSTAMKKVFRVYQGQQPGTCMGSKRSQVSSPCSRKKPRMGQQVLDNFFRSHISTDAHSLNSAAQ [V102D] | -0.89
MRKPRAAVGSGHRKQAASQEGRQKHAKNNSQAKPSACDGLARQPEEVVLQASVSSYHLFRDVAEVTAFRGSLLSWYDQEKRDLPWRRRAEDEMDLDRRAYAVWVSEVMLQQTQVATVINYYTGWMQKWPTLQDLASASLEEVNQLWAGLGYYSRGRRLQEGARKVVEELGGHMPRTAETLQQLLPGVGRYTAGAIASIAFGQATGVVDGNVARVLCRVRAIGADPSSTLVSQQLWGLAQQLVDPARPGDFNQAAMELGATVCTPQRPLCSQCPDESLCRARQRVEQEQLLASGSLSGSPDVEECAPNTGQCHLCLPPSEPWDQTLGVVNFPRKASRKPPREESSATCVLEQPGALGAQILLVQRPNSGLLAGLWEFPSVTWEPSEQLQRKALLQELQRWAGPLPATHLRHLGEVVHTFSHIKLTYQVYGLALEGQTPVTTVPPGARWLTQEEFHTAAVSTAMKKVFRVYQGQQPGTCMGSKRSQVSSPCSRKKPRMGQQVLDNFFRSHISTDAHSLNSAAQ [V274D] | -1.01
MRKPRAAVGSGHRKQAASQEGRQKHAKNNSQAKPSACDGLARQPEEVVLQASVSSYHLFRDVAEVTAFRGSLLSWYDQEIRDLPWRRRAEDEMDLDRRAYAVWVSEVMLQQTQVATVINYYTGWMQKWPTLQDLASASLEEVNQLWAGLGYYSRGRRLQEGARKVVEELGGHMPRTAETLQQLLPGVGRYTAGAIASIAFGQATGVVDGNVARVLCRVRAIGADPSSTLVSQQLWGLAQQLVDPARPGDFNQAAMELGATVCTPQRPLCSQCPVESLCRARQRVEQEQLLASGSLSGSPDVEECAPNTGQCHLCLPPSEPWDQTLGVVNFPRKASRKPPREESSATCVLEQPGALGAQILLVQRPNSGLLAGLWEFPSVTWEPSEQLQRKALLQELQRWAGPLPATHLRHLGEVVHTFSHIKLTYQVYGLALEGQTPVTTVPPGARWLTQEEFHTAAVSTAMKKVFRVYQGQQPGTCMGSKRSQVSSPCSRKKPRMGQQVLDNFFRSHISTDAHSLNSAAQ [K80I] | -0.35
MRKPRAAVGSGHRKQAASQEGRQKHAKNNSQAKPSACDGLARQPEEVVLQASVSSYHLFRDVAEVTAFRGSLLSWYDQEKRDLPWRRRAEDEMDLDRRAYAVWVSEVMLQQTQVATVINYYTGWMQKWPTLQDLASASLEEVNQLWAGLGYYSRGRRLQEGARKVVEELGGHMPRTAETLQQLLPGVGRYTAGAIASIAFGQATGVVDGNVARVLCRVRAIGADPSSTLVSQQLWGLAQQLVDPARPGDFNQAAMELGATVCTPQRPLCSQCPVESLCRARQRVEQEQLLASGSLSGSPDVEECAPNTGQCHLCLPPSEPWDQTLGVVNFPRKASRKPPREESSATCVLEQPGALGAQILLVQRPNSGLLAGLWEFPSVTWEPSEQLQRKALLQELQRWAGPLPATHNRHLGEVVHTFSHIKLTYQVYGLALEGQTPVTTVPPGARWLTQEEFHTAAVSTAMKKVFRVYQGQQPGTCMGSKRSQVSSPCSRKKPRMGQQVLDNFFRSHISTDAHSLNSAAQ [L408N] | -0.893
MRKPRAAVGSGHRKQAASQEGRQKHAKNNSQAKPSACDGLARQPEEVVLQASVSSYHLFRDVAEVTAFRGSLLSWYDQEKRDLPWRRRAEDEMDLDRRAYAVWVSEVMLQQTQVATVINYYTGWMQKWPTLQDLASASLEEVNQLWAGLGYYSRGRRLQEGARKVVEELGGHMPRTAETLQQLLPGVGRYTAGAIASIAFGQATGVVDGNVARVLCRVRAIGADPSSTLVSQQLWGLAQQLVDPARPGDFNQAAMELGATVCTPQRPLCSQCPVESLCRARQRVEQEQLLASGSLSGSPDVEECAPNTGQAHLCLPPSEPWDQTLGVVNFPRKASRKPPREESSATCVLEQPGALGAQILLVQRPNSGLLAGLWEFPSVTWEPSEQLQRKALLQELQRWAGPLPATHLRHLGEVVHTFSHIKLTYQVYGLALEGQTPVTTVPPGARWLTQEEFHTAAVSTAMKKVFRVYQGQQPGTCMGSKRSQVSSPCSRKKPRMGQQVLDNFFRSHISTDAHSLNSAAQ [C311A] | -0.544
MRKPRAAVGSGHRKQAASQEGRQKHAKNNSQAKPSACDGLARQPEEVVLQASVSSYHLFRDVAEVTAFRGSLLSWYDQEKRDLPWRRRAEDEMDLDRRAYAVWVSEVMLQQTQVATVINYYTGWMQKWPTLQDLASASLEEVNQLWAGLGYYSRGRRLQEGARKVVEELGGHMPRTAETLQQLLPGVGRYTAGAIASIAFGQATGVVDGNVARVLCRVRAIGADPSSTLVSQQLWGLAQQLVDPARPGDFNQAAMELGATVCTPQRPLCSQCPVESLCRARQRVEQEQLLASGSLSGSPDVEECAPNTGQCHLCLPPSEPWDQTLGVVNFPRKASRKPPREESSATCVLEQPGALGAQILLVQRPNSGLLAGLWEFPSVTWEPSEQLQRKALLQELQRWAGPLPATHLRHLGEVVHTFSHIKLTYQVYGLALEGQTPVTTVPPGARWLTQEEFHTAAVSTAMKKVFRVYQGQQPGTCMNSKRSQVSSPCSRKKPRMGQQVLDNFFRSHISTDAHSLNSAAQ [G479N] | -0.00734
MRKPRAAVGSGHRKQAASQEGRQKHAKNNSQAKPSACDGLARQPEEVVLQASVSSYHLFRDVAEVTAFRGSLLSWYDQEKRDLPWRRRAEDEMDLDRRAYAVWVSEVMLQQTQVATVINYYTGWMQKWPTLQDLASASLEEVNQLWAGLGYYSRGRRLQEGARKVVEELGGHMPRTAETLQQLLPGVGRYTAGAIASIAFGQATGVVDGNVARVLCRVRAIGADPSSTLVSQQLWGLAQQLVDPARPGDFNQAAMELGATVCTPQRPLCSQCPVESLCRARQRVEQEQLLASGSLSGSPDVEECAPNTGQCHLCLPPSEPWDQTLGVVNFPRKASRKPPREESSATCVLEQPGALGAQILLVQRPNSGLLAGLWEFPSVTWEPSEQLQRKALLQELQQWAGPLPATHLRHLGEVVHTFSHIKLTYQVYGLALEGQTPVTTVPPGARWLTQEEFHTAAVSTAMKKVFRVYQGQQPGTCMGSKRSQVSSPCSRKKPRMGQQVLDNFFRSHISTDAHSLNSAAQ [R398Q] | -0.525
MRKPRAAVGSGHRKQAASQEGRQKHAKNNSQAKPSACDGLARQPEEVVLQASVSSYHLFRDVAEVTAFRGSLLSWYDQEKRDLPWRRRAEDEMDLDRRAYAVWVSEVMLQQTQVATVINYYTGWMQKWPTLQFLASASLEEVNQLWAGLGYYSRGRRLQEGARKVVEELGGHMPRTAETLQQLLPGVGRYTAGAIASIAFGQATGVVDGNVARVLCRVRAIGADPSSTLVSQQLWGLAQQLVDPARPGDFNQAAMELGATVCTPQRPLCSQCPVESLCRARQRVEQEQLLASGSLSGSPDVEECAPNTGQCHLCLPPSEPWDQTLGVVNFPRKASRKPPREESSATCVLEQPGALGAQILLVQRPNSGLLAGLWEFPSVTWEPSEQLQRKALLQELQRWAGPLPATHLRHLGEVVHTFSHIKLTYQVYGLALEGQTPVTTVPPGARWLTQEEFHTAAVSTAMKKVFRVYQGQQPGTCMGSKRSQVSSPCSRKKPRMGQQVLDNFFRSHISTDAHSLNSAAQ [D133F] | -0.0791
